{"source": "paper PMC10093836", "about": "“Stabilization of the Dimeric State of SARS-CoV-2 Main Protease by GC376 and Nirmatrelvir” (International Journal of Molecular Sciences, 2023)", "origin": "cited, not measured here", "target": "Mpro (SARS-CoV-2) (UniProt P0DTD1)"}
{"substance": "Mpro (from UniProt P0DTD1)", "values": [{"measurement": "Kd", "result": 7, "unit": "µM"}]}
